Assay results as given in US20110177111A1, “[…] AGAINST STAPHYLOCOCCUS AUREUS BIOFILMS […] WALL-[…]” (UNIVERSITY OF MARYLAND, BALTIMORE, priority 2008, published 2011).
Marks after values point to notes of the source that are not given here.

Tests used:
[1] = test system: MRSA-M2; test: Rabbit tibial osteomyelitis model: vaccination, MRSA challenge, then vancomycin therapy; settings: rabbits, 75 μg each antigen per injection
[2] = test system: MRSA-M2; test: Rabbit tibial osteomyelitis (biofilm) infection model: vaccination, then intratibial MRSA-M2 challenge; type: in vivo, Staphylococcus aureus
Description: Animals were divided at random into groups.
Production of osteomyelitis. […] The infection was allowed to progress for 14 days.
Analysis of vaccine efficacy. Vaccine efficacy was evaluated in three ways.
Among these antigens, autolysin (AtlA) was one of the most immunoreactive. Because of its reported role in biofilm formation (31, 32) and its up-regulation during early biofilm growth (when an immune response could theoretically eradicate the biofilm), autolysin was tested as a vaccine. Purified recombinant glucosaminidase (one of the two protein components of AtlA) was injected into rabbits (three doses of 10 μg each, 10 days apart) and then animals were challenged using a tibial osteomyelitis infection.
Antibodies elicited by a single antigen vaccine may not provide adequate immunological recognition of the biofilm in vivo to enable complete microbial clearance. […] Therefore, the aforementioned antigens were tested as a multi-component vaccine. To this end, animals were vaccinated with 10 μg of each of four antigens: glucosaminidase, SA0688 (an ABC transporter lipoprotein), SA0037 (a conserved hypothetical protein), and SA0486 (a hypothetical lipoprotein), following the same dosing schedule as above. […] As well, vaccinated animals trended to lower CFU counts and an 88% reduction in bacterial loads in the tibia (FIG. 3A—quadrivalent). However, this reduction in bacterial populations was not statistically significant. Two doses of the combined vaccine at 15 μg each per dose were also studied, wherein increasing the prime and boost may lead to a more robust initial immune response when the biofilm is immature (and thus, enable clearance by the immune response).

Molecule: CN[C@H](CC(C)C)C(=O)N[C@H]1C(=O)N[C@@H](CC(N)=O)C(=O)N[C@H]2C(=O)N[C@H]3C(=O)N[C@H](C(=O)N[C@H](C(=O)O)c4cc(O)cc(O)c4-c4cc3ccc4O)[C@H](O)c3ccc(c(Cl)c3)Oc3cc2cc(c3O[C@@H]2O[C@H](CO)[C@@H](O)[C@H](O)[C@H]2O[C@H]2C[C@](C)(N)[C@H](O)[C@H](C)O2)Oc2ccc(cc2Cl)[C@H]1O [PBS + vancomycin, vancomycin]
- Percentage showing clinical signs of infection ([1]; vancomycin 40 mg/kg twice daily for ten days): 100%
- Mean radiological score ([1]; vancomycin 40 mg/kg twice daily for ten days from 14 days after challenge, score 0 to 4+): 2.1

B1: Glucosaminidase: Purified recombinant S. aureus glucosaminidase (SEQ ID NO:1), one of the two protein components of autolysin AtlA (protein, listed as Staphylococcus aureus)
chain: MAKKFNYKLPSMVALTLVGSAVTAHQVQAAETTQDQTTNKNVLDSNKVKATTEQAKAEVKNPTQNISGTQVYQDPAIVQPKAANKTGNAQVNQKVDTTQVNGDTRATQSTTSNNAKPVTKSTNTTAPKTNNNVTSAGYSLVDDEDDNSENQINPELIKSAAKPAALETQYKAAAPKATPVAPKAKTEATPKVTTFSASAQPRSAAAAPKTSLPKYKPQVNSSINDYIRKNNLKAPKIEEDYTSYFPKYAYRNGVGRPEGIVVHDTANDRSTINGEISYMKNNYQNAFVHAFVDGDRIIETAPTDYLSWGVGAVGNPRFINVEIVHTHDYASFARSMNNYADYAATQLQYYGLKPDSAEYDGNGTVWTHYAVSKYLGGTDHADPHGYLRSHNYSYDQLYDLINEKYLIKMGKVAPWGTQSTTTPTTPSKPSTPSKPSTPSTGKLTVAANNGVAQIKPTNSGLYTTVYDKTGKATNEVQKTFAVSKTATLGNQKFYLVQDYNSGNKFGWVKEGDVVYNTAKSPVNVNQSYSIKPGTKLYTVPWGTSKQVAGSVSGSGNQTFKASKQQQIDKSIYLYGSVNGKSGWVSKAYLVDTAKPTPTPTPKPSTPTTNNKLTVSSLNGVAQINAKNNGLFTTVYDKTGKPTKEVQKTFAVTKEASLGGNKFYLVKDYNSPTLIGWVKQGDVIYNNAKSPVNVMQTYTVKPGTKLYSVPWGTYKQEAGAVSGTGNQTFKATKQQQIDKSIYLYGTVNGKSGWISKAYLAVPAAPKKAVAQPKTAVKAYAVTKPQTTQTVSKIAQVKPNNTGIRASVYEKTAKNGAKYADRTFYVTKERAHGNETYVLLNNTSHNIPLGWFNVKDLNVQNLGKEVKTTQKYTVNRSNNGLSMVPWGTKNQVILTGNNIAQGTFNATKQVSVGKDVYLYGTINNRTGWVNSKDLTAPTAVKPTTSAAKDYNYTYVIKNGNGYYYVTPNSDTAKYSLKAFNEQPFAVVKEQVINGQTWYYGKLSNGKLAWIKSTDLAKELIKYNQIGMTLNQVAQIQAGLQYKPQVQRVPGKWTDANFNDVKHAMDTKRLAQDPALKYQFLRLDQPQNISIDKINQFLKGKGVLENQGAAFNKAAQMYGINEVYLISHALLETGNGTSQLAKGADVVNNKVVTNSNTKYHNVFGIAAYDNDPLREGIKYAKQAGWDTVSKAIVGGAKFIGNSYVKAGQNTLYKMRWNPAHPGTHQYATDVDWANINAKIIKGYYDKIGEVGKYFDIPQYK
- Mean radiological score ([2]; New Zealand White rabbits, three i.m. doses of 10 μg (each antigen), 10 days apart, 14 days after intratibial MRSA, score 0 to 4+ (Table 2)): 0.37*
- Number cleared ([2]; rabbits cleared of infection, 4 glucosaminidase, 5 multi-component animals, three doses of 10 μg (each antigen)): 1
- % showing clinical signs of infection ([2]; rabbits, three doses of 10 μg (each antigen), non-weight bearing on affected leg, 14 days after MRSA inoculation): 0%
- bacteriological signs of infection compared to PBS-vaccinated controls ([2]; rabbits, three doses of 10 μg each, 10 days apart): did not lead to significant differences
- Mean CFU/grams bone in affected tibias ([2]; rabbits, three doses of 10 μg, FIG. 1, PBS controls 9.84×10^7): 3.6×10^7 CFU/grams bone
